Data published in patent publication US7078478B2, “Inhibition of the proliferation of cells of the multiple myeloma” (GSF-Forschungszentrum für Umwelt Gesundheit, GmbH, priority 1999, dated 2006).

Assays:
[1] = tested on: IL-6 dependent murine cell line 7TD-1; test: IL-6 induced cell proliferation of 7TD-1 cells incubated with peptides, microscopic cell counting; format: cell-based; details: 7TD-1 stimulated with 40 pg IL-6, 100 μM peptide, 4 days, compared with untreated or unstimulated cells
Method: Subfragments of the previously described 41 amino acid Hck binding domain of gp130 were used to narrow down the essential parts of this domain. The subfragments, which are shown in FIG. 12, were synthesized by solid phase synthesis, N-terminally coupled to myristate in order to render them membrane soluble, and diluted in DMSO. A MM-cell line was incubated with the different peptides and cell proliferation was measured.
To determine the effects of the different peptides on IL-6 induced cell proliferation, the IL-6 dependent murine cell line 7TD-1 was stimulated with 40 pg of IL-6 and incubated with 100 μM of the different peptides. After 4 days, the cell proliferation was determined by microscopic cell counting.

[2] = target: DDM mutant (double point and deletion mutant) of Eg (mouse; human) (UniProt P14753); test: co-immunoprecipitation with anti-Hck, anti-His blot, Cos-7 lysates (FIG. 6)
[3] = target: deletion mutant Δ771-827 of Eg (mouse; human) (UniProt P14753); test: as above
[4] = target: deletion mutant Δ771-827 of Eg (mouse; human) (UniProt P14753); test: co-immunoprecipitation with anti-Hck, anti-His blot, Cos-7 lysates (FIG. 5A)
[5] = target: deletion mutant Δ771-827 of Eg (mouse; human) (UniProt P14753); test: co-immunoprecipitation with anti-Hck, anti-His blot, Cos-7 lysates (FIG. 5B)

| Substance | cell proliferation [1] | reduction of Hck binding to gp130 [2] | reduction of Hck binding to gp130 [3] | decrease of Hck co-precipitation with gp130 [4] | loss of gp130 co-precipitation with Hck [5] |
| --- | --- | --- | --- | --- | --- |
| LLDSEERPEDLQLVD [compound 6] | down regulation of cell proliferation to the basal level | – | – | – | – |
| Hck tyrosine kinase (wild type Hck, expressed from pcDNA3-Hck or pDpuro-Hck) (from UniProt P08631 2-526) (enzyme) | – | > 90% | > 90% | > 90% | 90% |
| TQPLLDSEERPEDLQLVD [compound 2] | down regulation of cell proliferation to the basal level | – | – | – | – |
